Patent US20240110154A1, “Engineered NKT Cells for Expansion and In Vivo Preservation and Methods of Use for the Control of Tumor Cells” (Baylor College of Medicine, priority 2021, published 2024)

B1: Wnt3a: recombinant Wnt3a, Wnt ligand (protein, UniProt P56704 19-352, looked up)
Protein Wnt-3a: SYPIWWSLAVGPQYSSLGSQPILCASIPGLVPKQLRFCRNYVEIMPSVAEGIKIGIQECQHQFRGRRWNCTTVHDSLAIFGPVLDKATRESAFVHAIASAGVAFAVTRSCAEGTAAICGCSSRHQGSPGKGWKWGGCSEDIEFGGMVSREFADARENRPDARSAMNRHNNEAGRQAIASHMHLKCKCHGLSGSCEVKTCWWSQPDFRAIGDFLKDKYDSASEMVVEKHRESRGWVETLRPRYTYFKVPTERDLVYYEASPNFCEPNPETGSFGTRDRTCNVSSHGIDGCDLLCCGRGHNARAERRREKCRCVFHWCCYVSCQECTRVYDVHTCK

Test system: NKTs
Assay: CD62L expression by flow cytometry on day 12 after antigenic stimulation of NKTs treated with Wnt activators
Format: cell-based, human
Conditions: for development of CD62L+ NKTs: day 12
Protocol: PBMC of healthy donors (at least 18 years old) are isolated by gradient centrifugation from buffy coats purchased from Gulf Coast Regional Blood Center. NKTs are purified by anti-iNKT microbeads (Miltenyi Biotec). The negative PBMC fraction is irradiated (40 Gy) and aliquoted. NKTs are stimulated with an aliquot of autologous PBMCs pulsed with 100 ng/niL αGalCer (Kyowa Hakko Kirin). Recombinant IL-2 (200 U/ml, National Cancer Institute Frederick) is added every other day in complete RPMI (HyClone RPMI 1640, 10% heat inactivated fetal bovine serum and 2 mM Glutamax). NKTs are expanded for 10 days and then re-stimulated with autologous PBMC (irradiated with 40 Gy) or Ramos cells as aAPC (irradiated with 100 Gy) when indicated. On day 3 after re-stimulation, 24 well, non-tissue culture plates are coated with retronectin (Takara Bio) and after washing inoculated with 1 ml of retroviral supernatant containing the constructs shown in FIG. 27 and described above and spun for 60 min at 4600 G. The viral supernatant is then removed and stimulated NKTs are added to the wells in complete media and 200 U/ml rhIL-2. Cells are removed from the plate after 48 h, washed, re-suspended at the concentration 10^6 cell/ml in complete RPMI with 200 U/ml IL-2 and plated for continued expansion. NKT-cell number is determined by Trypan Blue (Life technologies) counting. When indicated, NKTs or CAR-NKTs are labeled with CD62L-PE mAb (GREG-56, BD Biosciences) and anti-PE microbeads (Miltenyi) followed by magnetic sorting into CD62L+ and CD62L− subsets according to the manufacturer's instructions. The phenotype of the sorted cells was determined by FACS.
NKTs are stimulated as described in Example 2 but treated with three separate doses of PBS or 500 ng/mL Wnt3a given on day 0, 3 and 7 after antigenic stimulation. CD62L expression is examined by flow cytometry on day 12 after antigenic stimulation. […]
Following primary stimulation, NKTs are cultured with IL-2 or IL-2/IL-21 for 12 days. […] CD62L expression is analyzed by flow cytometry at the end of expansion.

| Molecule | development of CD62L+ NKTs (one dose 5 μM on day 7 after antigenic stimulation vs DMSO, n=6 donors) | development of CD62L+ NKTs (500 ng/mL on day 0, 3 and 7 vs PBS, n=3 donors) | CD62L frequency (500 ng/ml on days 0, 1, 2, culture with IL-2 or IL-2/IL-21 for 12 days) |
| --- | --- | --- | --- |
| Nc1cccc(-c2cc3c(Oc4cccc(O)c4)ncnc3[nH]2)c1 [TWS119, reference compound] | promotes development of CD62L+ NKTs | – | – |
| B1 | – | promotes development of CD62L+ NKTs | works additively with IL-21 to increase CD62L frequency |
